Experimental data: PMC5360572 (EBioMedicine, 2017)

Key:
Experiment in all cases: SPR; BIAcore 3000, 25 °C; PD-L1-Ig or PD-L2-Ig immobilized on CM5 chip by amine coupling; soluble monomeric PD-1 or mutants (0.01–100 μM) injected at 20 μl/min; equilibrium Kd, 1:1 Langmuir model
Details in all cases: both partners purified
[1] = molecular target: T1, human PD-L1 Ig fusion protein (human, UniProt Q9NZQ7 19-238)
T1 construct: characterized by SEC prior to use; detected on cells with anti-human IgG Fcγ-specific F(ab')2; also called huPD-L1; B7-H1; source: bought: R&D Systems

[2] = molecular target: T2, human PD-L2 Ig fusion protein (human, UniProt Q9BQ51 20-220)
T2 construct: characterized by SEC prior to use; also called huPD-L2; B7-DC; source: bought: R&D Systems
T2 sequence (looked up): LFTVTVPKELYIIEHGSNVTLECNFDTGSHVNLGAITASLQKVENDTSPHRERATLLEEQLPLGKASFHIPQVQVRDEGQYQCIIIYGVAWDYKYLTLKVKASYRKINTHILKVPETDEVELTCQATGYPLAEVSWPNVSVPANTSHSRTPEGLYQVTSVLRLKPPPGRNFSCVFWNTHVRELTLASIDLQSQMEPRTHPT

[3] = molecular target: T3, mouse PD-L2 Ig fusion protein (mouse, UniProt Q9WUL5 20-221)
T3 construct: mouse PD-L2 part of a bought Ig fusion protein; also called mPD-L2; murine PD-L2-Ig; source: bought: R&D Systems
T3 sequence (looked up): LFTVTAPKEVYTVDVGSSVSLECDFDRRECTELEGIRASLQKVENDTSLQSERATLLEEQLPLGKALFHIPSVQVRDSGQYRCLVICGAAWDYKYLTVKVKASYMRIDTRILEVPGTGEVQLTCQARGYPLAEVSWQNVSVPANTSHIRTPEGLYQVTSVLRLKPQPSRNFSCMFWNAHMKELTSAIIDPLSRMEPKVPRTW

[4] = molecular target: T4, mouse PD-L1 Ig fusion protein (mouse, UniProt Q9EP73 19-239)
T4 construct: mouse PD-L1 part of a bought Ig fusion protein; also called mPD-L1; murine PD-L1-Ig; source: bought: R&D Systems
T4 sequence (Q9EP73 19-239): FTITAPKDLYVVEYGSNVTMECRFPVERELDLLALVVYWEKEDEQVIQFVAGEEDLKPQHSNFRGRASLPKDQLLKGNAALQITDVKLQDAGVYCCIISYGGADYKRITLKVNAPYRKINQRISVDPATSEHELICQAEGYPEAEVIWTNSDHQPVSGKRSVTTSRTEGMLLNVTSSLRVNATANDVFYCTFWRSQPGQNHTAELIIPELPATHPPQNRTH

T1 sequence (Q9NZQ7 19-238): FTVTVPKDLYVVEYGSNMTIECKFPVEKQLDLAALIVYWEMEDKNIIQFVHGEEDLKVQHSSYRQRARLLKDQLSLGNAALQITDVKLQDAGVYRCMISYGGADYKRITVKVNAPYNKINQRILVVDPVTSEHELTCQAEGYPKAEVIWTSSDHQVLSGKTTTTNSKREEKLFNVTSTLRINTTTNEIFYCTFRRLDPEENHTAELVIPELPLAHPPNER

B1: mouse PD-1 A132L mutant (soluble, monomeric) (domain or fragment)
chain: SLTFYPAWLTVSEGANATFTCSLSNWSEDLMLNWNRLSPSNQTEKQAAFCNGLSQPVQDARFQIIQLPNRHDFHMNILDTRRNDSGIYLCGAISLHPKLKIEESPGAELVVTERILE
notes: the same molecule is used for the SPR analyte and for the crystallised complexes (PDB 3SBW, 3RNK, 3BP6); also called mA132L; mouse analog of A132L
Kd [1]: 480 nM | Kd [2]: 1180 nM | Kd [3]: 470 nM | Kd [4]: 2780 nM
